Experiment [1] deals with DEBSIII TE wild type (thioesterase domain of the erythromycin polyketide synthase DEBSIII) (Saccharopolyspora erythrea). The experiment can be described thus: SEC.
For experiment [2], the target named is TylG5 TE wild type (thioesterase domain of the tylosin polyketide synthase TylG5) (Streptomyces fradiae). As to the kind of experiment: SEC. In general terms: Size exclusion chromatography separates by hydrodynamic size, large species first.

As usually defined, the stoichiometry N is a count of units in the complex or per binding partner.

Take “DEBSIII TE wild type (thioesterase domain of the erythromycin polyketide synthase DEBSIII) (domain or fragment)”: in experiment [1], the stoichiometry N is 2.
In turn, “TylG5 TE wild type (thioesterase domain of the tylosin polyketide synthase TylG5) (domain or fragment)” gave a stoichiometry N in experiment [2] of 2.

The values above are taken from publication PMC11804868.
